Assay results taken from the nanobody polyreactivity screen of Harvey et al. (2022).

Experiment: yeast display, Sf9 membrane polyspecificity reagent, FACS + sequencing; frameworks hold sequencing errors
Summary of the method: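 After 36–48 hours of galactose induction, yeast (Saccharomyces cerevisiae BJ5465) displaying a synthetic nanobody library were stained at 4 °C for 1 hour with 10% biotinylated, detergent-solubilized Sf9 membrane reagent. Streptavidin microbeads enriched the stained cells before FACS sorting into low and high (top ~1%) gates on anti-HA and streptavidin fluorescence. Each clone's polyreactivity label reflects its gate of origin.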

Row | Sequence | polyreactivity (PSR sort gate)
1 | QVQLVESGGGLVQAGGSLRLSCAASGRTLEHNAMGWYRQAPGKERELVAAITDGGASTYYADSVKGRFTISRENAKNTVYLQMNSLKPEDTAVYYFAADTYPTTSEFDYWGQGTQVTVSS | low polyreactivity
2 | QVQLVESGGGLVQAGGSLRLSCAASGRTLFHYAMGWYRQAPGKERELVAAIRNSDGSTYYADSVKGRFTISRDNAKNSVYLQMNSLKPEDTGDYNCAAKYKYGTYNYWGQGSQVTVSS | high polyreactivity
3 | QVQLVESGGGLVQAGGSLRLSCAASGRTLFPNVMGWYRQAPGKERELVAAITTIGGSTYYADSVKGRFTISRDNGKNTVFLQMNSLKPEDTEVYYCNARYRGRGLKFAYWGQGTQVTVSS | high polyreactivity
4 | QVQLVESGGGLVQAGGSLRLSCAASGRTLGGNAMGWYRQAPGQERELVAAITNSASTYADSVKGRFTISRDNAKNTVYIQMNSLKPEDTAVYYCTAPDPSDQNGDYWGQGTQVTVSS | low polyreactivity
5 | QVQLVESGGGLVQAGGSLRLSCAASGRTLGQNVMGWYRQAPGKERELVAAISSNTAGNTYYADSVKGRFTISRDNAKNTVYLQMNSLKPEDTAVYYCAIVDSFEAILDYWGQGTQVTVSS | low polyreactivity
6 | QVQLVESGGGLVQAGGSLRLSCAASGRTLGRNAMGWYRQAPGKERELVASISSGGSTNYADSVKGRFTISRDNAKNTVYLQMNSLKPEDTAVYYCNKRYRSLYSSGYDYWGQGTQVTVSS | high polyreactivity
7 | QVQLVESGGGLVQAGGSLRLSCAASGRTLGRYAMGWYRPAPGKERELVAAITRRGGITYYADSVKGRFTISRDNAKNTVYLQMNSLKPEDTAVYYCNAVNKSLQPVRDVYPLYRHDYWGQGTQVTVSS | high polyreactivity
8 | QVQLVESGGGLVQAGGSLRLSCAASGRTLGRYAMGWYRQAPGKERELVAAINVGGGTTHYADSVKGRFTISRDNAKNTVYLQMNSLKPEDTAVYYCAAYRYTYGDRHAYDYWGQGTQVTVSS | low polyreactivity
9 | QVQLVESGGGLVQAGGSLRLSCAASGRTLGVYAMGWYRQAPGKERELVATITSGDGTNYADSVKGRFTISRDNAKNTVYLQMNSLKPVDTAVYYCNAEAKSQWFVYPYWYWPLYDYWGPGTQVTVSS | low polyreactivity
10 | QVQLVESGGGLVQAGGSLRLSCAASGRTLHKNVMGWYRQAPGKERELVAAINTGGRTYYADSVKGRFTISRDNAKNTVYLQMNSLKREDTAVYYCAKEGHVNPRPTVGGDYWGQGTQVTVSS | low polyreactivity
11 | QVQLVESGGGLVQAGGSLRLSCAASGRTLIFYAMGWYRQAPGKERELVAAISGSGGRTYYADSVKGRFTISRDNAKNTVYLQMNSLKPEDTAVYYCNRRHSYPYDYWGQGTQVTVSS | high polyreactivity
12 | QVQLVESGGGLVQAGGSLRLSCAASGRTLIVNTMGWYRQAPGKEREFVAAIFSGASTYYAYSVKGRFTISRDNAKNTVYLQMNSLKPEDTAVYYCAVRNWHLIKYLHGYTRYGYWGQCTQVTVSS | low polyreactivity
13 | QVQLVESGGGLVQAGGSLRLSCAASGRTLKINAMGWYRQAPGKERELVARISAGRTYYADSVKGRFTISRDNAKNTVYLQMNSLKPEDTAVYYCARRTNRPPWGFEYWGQGTQVTVSS | high polyreactivity
14 | QVQLVESGGGLVQAGGSLRLSCAASGRTLKVYAMGWYRQAPGKERELVAAINNGGSTNYADSVKGRFTISRDNAKNTVYLQMNSLKPEDTAVYYCNAVYYARYRNYTYYYWGQGTQVTVSS | high polyreactivity
15 | QVQLVESGGGLVQAGGSLRLSCAASGRTLNRYAMGWYRQAPGKERELVAAIRWRGASTYYADSVKGRFTISRDNAKNTVYLQMNSLKPEDTAVYYCAKRFFASTPNFDYWGQGTQVTVSS | high polyreactivity
16 | QVQLVESGGGLVQAGGSLRLSCAASGRTLPFYAMGWYRQAPGKERELLAAINRSGGSTYYADSVKGRFTISRDNAKNTVSLQMNILKPEDTAVYYGNNVTVPGLGYYPPSYSNGHWGQGTQVSVSS | high polyreactivity
17 | QVQLVESGGGLVQAGGSLRLSCAASGRTLPYNAMGWYRQAPGKERELVAAISKRGSSTYYADSVKGRFTISRDNAKNTVYLQMNSLKPEDTAVYYCAKGGSFYYWGQGTQVTVSS | high polyreactivity
18 | QVQLVESGGGLVQAGGSLRLSCAASGRTLQTYVMGWYRQPPGKERELVAAITRGGGSTYYADSVKGRFTISRDNAKNTVYLQMNSLKPEDTAVYYCAASALRFNSRFSHWYNYWGQGTQVTVSS | high polyreactivity
19 | QVQLVESGGGLVQAGGSLRLSCAASGRTLRINTMGWYRQAPGKERELVADITSSGGSTYYADSVKGRFTISRDNAKNTVYLQMNSLKPEDTAVYYCAADPIDIYYWEFDYLGQGTQVTVSS | low polyreactivity
20 | QVQLVESGGGLVQAGGSLRLSCAASGRTLRKYAMGWYRQAPGKERELVAAITWTGGTTYYADSVKWRFTISRDNAKNTVYLQMNSLKPEDTAVYYCATVRSYGYGYDFWGQGTQVTVSS | high polyreactivity
21 | QVQLVESGGGLVQAGGSLRLSCAASGRTLRLYAMGWYRPAPGKERELVASITGRGGSTYYADSVKGRFTISRDNAKNTVYLQMNSLKPEDTAVYYCAKLPLSTAMGYWGQGTQVTVSS | low polyreactivity
22 | QVQLVESGGGLVQAGGSLRLSCAASGRTLRSYAMGWYRQAPGKERELVARISSGGSTTYADSVKGRFTISRDNAKNTVYLQMNSLKPEDTAVYYCNAQLVYTVYRLRYYHWGQGTQVTVSS | high polyreactivity

Row | Sequence | polyreactivity (PSR sort gate)
23 | QVQLVESGGGLVQAGGSLRLSCAASGRTLSLYAMGWYRQAPGKERELVATISKSGGSTDYADSVKGRFTISRDNAKNTVYLQMNSLKPEDTAVYYCAADANSWFTSYQVYGSEFDYWGQGTQVTVSS | low polyreactivity
24 | QVQLVESGGGLVQAGGSLRLSCAASGRTLSNYAMGWYRQAPGKERELVAAISSSGSTNYADSVKGRFTISRDNAKNTVYLQMNSLKPEDTAVYYCAAESWFLRWYRYDYWGQGTQVTVSS | low polyreactivity
25 | QVQLVESGGGLVQAGGSLRLSCAASGRTLSYYAMGWYRQAPGKEREFVAAITGSGGSTYYADSVKGRFTISRDNAKNNVYLQMNSLKPEDTAVYYCNATGLGVFTVEYYYWGQGTQVTVSS | low polyreactivity
26 | QVQLVESGGGLVQAGGSLRLSCAASGRTLTRYTMGWYRQAPGKERELVATISRSGGNTHYADSVKGRFTISRDNAKNTVYLQMNSLKPEDTAVYYCNAVRYALYGYDYWGQGTQVTVSS | high polyreactivity
27 | QVQLVESGGGLVQAGGSLRLSCAASGRTLVDYGMVWYRQAPGKERELVAVITSGGSTYYADSVKGRFTISRDNAKNTVYLQLNSLIQEDTAVYYCAADNCYRGYHSPYDYWGQGTQVTVSS | low polyreactivity
28 | QVQLVESGGGLVQAGGSLRLSCAASGRTLVLYAMGWYRQAPGKERELVAAITWSGDSTYYADSVKGRFTISRDNAKNTVYLQMNSLKPEDTAVYYCAADKSYRRVYYWGQGTQVTVSS | low polyreactivity
29 | QVQLVESGGGLVQAGGSLRLSCAASGRTLVPYAMGWYRQAPGKERELVAAISNVSSTNYADSVKGRFTISRDNAKNTGYLQMNSLKPEDTAVYYCNAVGVPSEYYSWGQGTQVTVSS | low polyreactivity
30 | QVQLVESGGGLVQAGGSLRLSCAASGRTLWSYTMGWYRQAPGKESELVARITIGGSTNYADSVKGRFTISRDNAKNTVYLQMNSLKPEDTAVYYCNARASYSYGSYLSKSYGYDYWGQGTQVTVSS | high polyreactivity
31 | QVQLVESGGGLVQAGGSLRLSCAASGRTLYDYAMEWYRQAPGKERELVAGITSGDSTYYADSVKGRFTISRDNAKNTVDLQMNSLKPEDTAVYYCAADSDTFYYTGYDYDYWGQGTQGTVSS | low polyreactivity
32 | QVQLVESGGGLVQAGGSLRLSCAASGRTLYQYAMGWYRQAPGKERELVAAITWNGGSTYYADSVKGRFTISRDNAKNTVYLQMNSLKPEDTAVYYCAADTVRPWYAYKAHDYWGQGTQVTVSS | low polyreactivity
33 | QVQLVESGGGLVQAGGSLRLSCAASGRTLYRYAMGWYRQAPGKERELVAAIRSGGRTNYSDSVKGRFTISRDNAKNTVYLQMNSLKPEDTAVYYCAARTLRYPSTYDYWGQGTQVTVSS | high polyreactivity
34 | QVQLVESGGGLVQAGGSLRLSCAASGRTLYRYAMGWYRQAPGKERELVATITTGGSTNYADSVKGRFTISRDNAKNTVYLQMNSLKPEDTAVYYCNAGILSRWVRKYYYWGQGTQVTVSS | low polyreactivity
35 | QVQLVESGGGLVQAGGSLRLSCAASGRTLYRYAMGWYRQAPGKERELVAVISWNAVGTYYADSVKGRFTISRDNAKNTVYLQMNSLKPEDTAVYYCAARKRVASQGYIRYNYWGQGTQVTVSS | high polyreactivity
36 | QVQLVESGGGLVQAGGSLRLSCAASGRTLYSNAMGWYRQSPGKERELVAAISSRGGRTYYADSVKGRFTISRDNAKNTVYLQMNSLKPVDTAVYYCNAAYGTGRRQAKSDYWGQGTQVTVSS | high polyreactivity
37 | QVQLVESGGGLVQAGGSLRLSCAASGRTLYYNTMGWYRPAPGKERELVSSIRWDGGRTYYADSVKGRFTISRDNAKNTVYLQMNSLKPEDTAVYYCAKDGCYYYGTYAYDGCFDYWGQGTQVTVSS | low polyreactivity
38 | QVQLVESGGGLVQAGGSLRLSCAASGRTLYYYAMGWYRQEPGKERELVAAISWSGGRTYYADSVKGRFTISRDNAKNTVYLQMNSLKAEDTAVYYCAAQYISRGYTVDYWGQGTQVTVSS | high polyreactivity
39 | QVQLVESGGGLVQAGGSLRLSCAASGRTNSFYAMGWYRQAPGKERELVAAISRGGTTNYADSVKGRFTISRDNAKNTVYLQMNSLKPEDTAVYYCAASYFRRGFYSIYEYDYWGQGTQVTVSS | low polyreactivity
40 | QVQLVESGGGLVQAGGSLRLSCAASGRTQAFHAMGWYRQAPGKERELVAVIRNGTSTNYADSVKGRFTISRDNAKNTVYLQMNSLKPEDTAVYYCNVPYYLPSYLSGYDYWGQGTQVTVSS | low polyreactivity
41 | QVQLVESGGGLVQAGGSLRLSCAASGRTQRYYAMGWYRQAPRKERELVAAITKSGGSTYYADSVKGRITISRDNAKNTVYLQMYSLKPEDTAVYYFNKVTYSRAQYIGGDGYYWGQGTQVTVSS | high polyreactivity
42 | QVQLVESGGGLVQAGGSLRLSCAASGRTQSRYTMGWYRQAPGKERELVAAISTSGSTYYADSVKGRFTISRDNAKNTVYLQMNSLKPEDTAVYYCNAVRRYLQYATGYDYWGQGTQVTVSS | high polyreactivity
43 | QVQLVESGGGLVQAGGSLRLSCAASGRTQYKYAMGWYRQAPGKERELVATISSGGRTKYADSVKGRFTISRDNAKNTVDLQMNSLKPEDTAVYYCAAQNRPRYYSGDYWGQGTQVTVSS | low polyreactivity
